These results are taken from patent US20240368223A1 (KAGOSHIMA UNIVERSITY, published 2024).

Assay [1] has as its target T1, bovine serum albumin (bovine, UniProt P02769 25-607).
T1 construct: also called BSA
Briefly: size exclusion chromatography with fluorescence detection at 565 nm. How it is done:
The reaction was terminated by the addition of 10 μL of 1 M Tris-HCl (pH=7.0). Then, size exclusion chromatography was performed using Superdex™ 200 10/30GL 1.0 cm in diameter×30 cm (GE Healthcare Japan Corp.); flow rate: 0.3 ml/min; running buffer: PBS pH 7.4. Assay was conducted using a fluorescence detector RF-10A (Shimadzu Corp.) (excitation light: 541 nm, fluorescence: 565 nm).
In general terms: Size exclusion chromatography separates by hydrodynamic size, large species first.

The target of assay [2] is T2, human IgG Fc (human, UniProt P01857-1 108-330 = IgG part).
T2 construct: domain: Fc; also called human IgG1 Fc
In words: X-ray crystal structure of the Fc/peptide complex.
Experimental: 70 μL of the crystallizing agent was dispensed thereto as a reservoir solution. The plate was hermetically sealed using PowerSeal CRISTAL VIEW (manufactured by Greiner Bio-One Co., Ltd.) and then left standing for approximately 2 weeks in a thermostat bath of 20° C. to obtain crystals.
The assay was carried out at an X-ray wavelength of 1 angstrom and an angle of oscillation of 1°/frame. Next, the diffraction intensity data was processed at a resolution of 3.0 angstroms using a diffraction intensity data processing program HKL2000 (manufactured by HKL Research Inc.).
A Fc moiety model registered as PDB accession code: 1DN2 in the Protein Data Bank (PDB, URL: http://www.rcsb.org/pdb/) was utilized as a search model for the molecular replacement method.

Bridges are numbered along the chain shown (N, C = ends). Where no end group is shown, it is not given here. [ ]: non-standard residue; d: D form. hCys = N[C@@H](CCS)C(=O)O

T1 sequence (P02769 25-607 limits assumed): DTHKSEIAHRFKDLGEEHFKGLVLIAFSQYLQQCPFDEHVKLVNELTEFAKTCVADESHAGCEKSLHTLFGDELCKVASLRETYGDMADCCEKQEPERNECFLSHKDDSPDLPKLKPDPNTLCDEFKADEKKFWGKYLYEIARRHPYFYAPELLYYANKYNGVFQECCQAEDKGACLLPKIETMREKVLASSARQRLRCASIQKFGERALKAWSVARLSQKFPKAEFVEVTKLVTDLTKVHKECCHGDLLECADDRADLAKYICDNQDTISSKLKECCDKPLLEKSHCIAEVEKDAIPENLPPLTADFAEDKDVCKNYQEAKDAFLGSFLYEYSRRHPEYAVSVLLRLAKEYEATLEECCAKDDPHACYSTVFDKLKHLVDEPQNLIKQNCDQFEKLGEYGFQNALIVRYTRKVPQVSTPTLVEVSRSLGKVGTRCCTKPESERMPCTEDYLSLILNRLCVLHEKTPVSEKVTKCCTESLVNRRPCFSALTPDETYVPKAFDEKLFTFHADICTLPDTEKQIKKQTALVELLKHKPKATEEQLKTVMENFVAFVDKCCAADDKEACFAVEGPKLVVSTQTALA

B1: fluorescent (5/6 TAMRA-PEG4) IgG-binding peptide modified with DSS (peptide)
peptide: GPDCAYHXGELVWCTFH
modifications: X at position 8 (lysine in Type I(R8K)) modified with DSS; N-terminal amino-PEG4 modified with 5/6 TAMURA succinimidyl ester (fluorescent dye); C-terminal amide; intramolecular S-S bond
notes: also called DSS-crosslinked peptide
Consider B1, for which the binding result in assay [1] is on record as “no binding”.

B2: fluorescent (5/6 TAMRA-PEG4) IgG-binding peptide modified with DSG (peptide)
peptide: GPDCAYHXGELVWCTFH
modifications: X at position 8 (lysine in Type I(R8K)) modified with DSG; N-terminal amino-PEG4 modified with 5/6 TAMURA succinimidyl ester (fluorescent dye); C-terminal amide; intramolecular S-S bond
notes: also called DSG-cross-linked peptide
On to B2, for which the binding result in assay [1] is “no binding”.

B3: cyclic homocysteine peptide G(HC)DCAYHRGELVWCT(HC)H-NH2 (peptide)
peptide: G[hCys]DCAYHRGELVWCT[hCys]H-NH2
modifications: disulfide 4-14, 2-16; N-terminus assumed
SMILES: CC(C)C[C@@H]1NC(=O)[C@H](CCC(=O)O)NC(=O)CNC(=O)[C@H](CCCNC(=N)N)NC(=O)[C@H](Cc2c[nH]cn2)NC(=O)[C@H](Cc2ccc(O)cc2)NC(=O)[C@H](C)NC(=O)[C@@H]2CSSC[C@H](NC(=O)[C@H](Cc3c[nH]c4ccccc34)NC(=O)[C@H](C(C)C)NC1=O)C(=O)N[C@@H]([C@@H](C)O)C(=O)N[C@H](C(=O)N[C@@H](Cc1c[nH]cn1)C(N)=O)CCSSCC[C@H](NC(=O)CN)C(=O)N[C@@H](CC(=O)O)C(=O)N2
notes: Peptide put into the crystals with Fc; Residue numbers in the text (Arg8) count on the 17-residue peptide
In the case of B3, in assay [2], the binding result is “binds”.
